# Measured values reported in patent US20240116985A1 (published 2024).
# Starred links: 1 amine or outer side, 2 acyl side, 3 side chain; linkers in the order of their positions; H or OH if unused. Positions of bridges follow the written chain, without caps; N, C: chain ends. Non-standard residues stand in square brackets, D forms with d. Primed or numbered codes have the meaning given here. *: point of attachment. PyrS2″ = (S)-3-amino-1-((pent-4-en-1-yloxy)carbonyl)pyrrolidine-3-carboxylic acid (stapling residue), C=CCCCOC(=O)N1CC[C@@](N[*:1])(C(=O)[*:2])C1; PyrS3″ = (S)-3-amino-1-((hex-5-en-1-yloxy)carbonyl)pyrrolidine-3-carboxylic acid (stapling residue), C=CCCCCOC(=O)N1CC[C@@](N[*:1])(C(=O)[*:2])C1; B5(4) = 2,2-bis(4-pentenyl)glycine = 2-amino-2-(pent-4-en-1-yl)hept-6-enoic acid (stitching residue), C=CCCCC(CCCC=C)(N[*:1])C(=O)[*:2]; PyrS4 = (S)-3-amino-1-((hept-6-en-1-yloxy)carbonyl)pyrrolidine-3-carboxylic acid, C=CCCCCCOC(=O)N1CC[C@@](N[*:1])(C(=O)[*:2])C1; B3 = 2-allyl-2-aminopent-4-enoic acid, C=CCC(CC=C)(N[*:1])C(=O)[*:2]; Phe(2-CONH2) = NC(=O)c1ccccc1C[C@H](N)C(=O)O; Phe(2-Cl) = N[C@@H](Cc1ccccc1Cl)C(=O)O; Bta = N[C@@H](Cc1csc2ccccc12)C(=O)O; Lys(iPr) = CC(C)NCCCC[C@H](N)C(=O)O; αAllylPro = C=CC[C@@]1(C(=O)O)CCCN1; tBuAla = CC(C)(C)C[C@H](N)C(=O)O; 3Thi = N[C@@H](Cc1ccsc1)C(=O)O; Cha = N[C@@H](CC1CCCCC1)C(=O)O; Leu(ol) = CC(C)C[C@H](N)CO; hSer = N[C@@H](CCO)C(=O)O; Alaol = C[C@@H](CO)N*
# T1: B-cat-Halo (UniProt P35222 1-781)
# T1 sequence (looked up): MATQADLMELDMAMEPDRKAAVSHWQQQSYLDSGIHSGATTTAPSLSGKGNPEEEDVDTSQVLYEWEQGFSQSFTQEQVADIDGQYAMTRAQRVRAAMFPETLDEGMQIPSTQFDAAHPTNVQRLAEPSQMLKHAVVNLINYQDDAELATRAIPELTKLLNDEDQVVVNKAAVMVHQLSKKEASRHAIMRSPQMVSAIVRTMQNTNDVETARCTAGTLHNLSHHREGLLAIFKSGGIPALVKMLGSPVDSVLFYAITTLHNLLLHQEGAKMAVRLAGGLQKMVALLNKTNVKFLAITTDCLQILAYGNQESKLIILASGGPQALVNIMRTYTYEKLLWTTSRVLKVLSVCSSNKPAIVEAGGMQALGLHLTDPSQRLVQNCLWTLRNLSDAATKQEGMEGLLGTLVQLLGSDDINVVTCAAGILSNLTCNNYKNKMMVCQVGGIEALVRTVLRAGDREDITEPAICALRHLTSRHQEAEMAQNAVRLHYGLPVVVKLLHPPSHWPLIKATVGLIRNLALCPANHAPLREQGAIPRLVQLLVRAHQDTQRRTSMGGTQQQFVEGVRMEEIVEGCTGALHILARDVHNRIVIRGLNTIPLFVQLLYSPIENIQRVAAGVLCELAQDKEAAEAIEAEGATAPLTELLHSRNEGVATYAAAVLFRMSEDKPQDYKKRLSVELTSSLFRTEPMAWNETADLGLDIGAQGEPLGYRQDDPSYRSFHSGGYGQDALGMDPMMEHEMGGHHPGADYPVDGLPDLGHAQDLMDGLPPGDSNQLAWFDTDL
# T2: beta-catenin in DLD1 TCF/LEF reporter cells (UniProt P35222 1-781)
# T2 sequence (looked up): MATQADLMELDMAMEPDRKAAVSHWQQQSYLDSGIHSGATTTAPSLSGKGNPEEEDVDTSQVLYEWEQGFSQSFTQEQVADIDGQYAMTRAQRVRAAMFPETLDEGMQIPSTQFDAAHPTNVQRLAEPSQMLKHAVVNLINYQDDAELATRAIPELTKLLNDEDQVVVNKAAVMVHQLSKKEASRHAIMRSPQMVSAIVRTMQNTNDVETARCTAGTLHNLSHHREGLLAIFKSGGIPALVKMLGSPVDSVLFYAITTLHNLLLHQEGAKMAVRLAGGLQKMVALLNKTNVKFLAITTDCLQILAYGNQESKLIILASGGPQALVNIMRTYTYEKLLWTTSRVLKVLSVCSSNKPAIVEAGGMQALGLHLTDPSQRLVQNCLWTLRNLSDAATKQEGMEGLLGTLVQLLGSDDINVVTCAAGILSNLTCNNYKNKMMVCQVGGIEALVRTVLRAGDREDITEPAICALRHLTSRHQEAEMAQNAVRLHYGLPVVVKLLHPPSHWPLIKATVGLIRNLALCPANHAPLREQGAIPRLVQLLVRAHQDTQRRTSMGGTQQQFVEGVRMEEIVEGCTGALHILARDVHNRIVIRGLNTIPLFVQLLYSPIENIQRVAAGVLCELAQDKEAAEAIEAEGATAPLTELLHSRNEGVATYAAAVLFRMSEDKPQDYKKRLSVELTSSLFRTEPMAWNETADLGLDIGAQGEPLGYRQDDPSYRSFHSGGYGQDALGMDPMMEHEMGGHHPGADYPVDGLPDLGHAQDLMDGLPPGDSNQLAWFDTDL
# T3: B-cat-Halo (beta-catenin HaloTag NanoBRET construct expressed in HEK293 cells) (UniProt P35222 1-781)
# T3 sequence (looked up): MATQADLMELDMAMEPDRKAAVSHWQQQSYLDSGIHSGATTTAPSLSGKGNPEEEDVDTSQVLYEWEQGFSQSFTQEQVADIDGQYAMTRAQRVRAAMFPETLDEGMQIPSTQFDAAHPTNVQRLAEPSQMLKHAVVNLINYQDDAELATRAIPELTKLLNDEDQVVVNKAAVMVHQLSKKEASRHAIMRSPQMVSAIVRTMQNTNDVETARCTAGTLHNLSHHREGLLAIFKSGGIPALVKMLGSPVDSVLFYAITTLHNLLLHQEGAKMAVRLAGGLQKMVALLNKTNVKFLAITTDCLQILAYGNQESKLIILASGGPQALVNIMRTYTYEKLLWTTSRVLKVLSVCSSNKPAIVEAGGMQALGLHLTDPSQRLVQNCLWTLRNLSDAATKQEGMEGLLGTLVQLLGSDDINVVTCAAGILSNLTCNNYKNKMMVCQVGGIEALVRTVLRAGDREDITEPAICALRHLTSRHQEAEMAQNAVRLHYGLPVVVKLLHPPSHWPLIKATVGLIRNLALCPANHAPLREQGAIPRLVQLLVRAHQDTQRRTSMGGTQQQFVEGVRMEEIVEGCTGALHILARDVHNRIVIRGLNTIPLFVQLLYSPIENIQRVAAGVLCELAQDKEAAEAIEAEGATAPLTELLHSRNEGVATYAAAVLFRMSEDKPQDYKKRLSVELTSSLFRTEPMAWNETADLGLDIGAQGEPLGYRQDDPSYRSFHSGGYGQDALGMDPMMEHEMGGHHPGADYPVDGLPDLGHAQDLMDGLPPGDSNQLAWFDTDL
# Biological target: T1, B-cat-Halo
# Assay: cell-based or functional assay
row,Binder,NanoBRET Abs IC50 [µM]
1,"Ac-[αAllylPro]D[tBuAla][B5(4)]DDAAFT[PyrS2″][Phe(2-Cl)][Bta][Leu(ol)] (staple 1-4, 4-11) [I-1247]",> 20
2,"Ac-[αAllylPro]D[tBuAla][B5(4)]DDAAFT[PyrS2″][Phe(2-Cl)][Bta]-Alaol (staple 1-4, 4-11) [I-1246]",24.3

# Biological target: T2, beta-catenin in DLD1 TCF/LEF reporter …
# Assay: cell-based or functional assay
row,Binder,DLD1 reporter assay Abs IC50 [µM]
1,"Ac-[αAllylPro]D[tBuAla][B5(4)]DDAAFT[PyrS2″][Phe(2-Cl)][Bta][Leu(ol)] (staple 1-4, 4-11) [I-1247]",> 20
2,"Ac-[αAllylPro]D[tBuAla][B5(4)]DDAAFT[PyrS2″][Phe(2-Cl)][Bta]-Alaol (staple 1-4, 4-11) [I-1246]",15.9

# Biological target: T3, B-cat-Halo (beta-catenin HaloTag …)
# Assay: cell-based or functional assay
row,Binder,NanoBRET Abs IC50 [µM]
1,"Ac-[αAllylPro]D[tBuAla][B3]DDAAFL[PyrS4][3Thi][Bta]Q-NH2 (staple 1-4, 4-11; also: later eluting HPLC peak (staple isomer composition)) [I-2159]",> 20
2,"Ac-[αAllylPro]D[tBuAla][B3]DDAAFL[PyrS3″][3Thi][Bta]Q-NH2 (staple 1-4, 4-11; also: olefin in each staple reduced to -CH2-CH2-) [I-2161]",> 20
3,"Ac-[αAllylPro]D[tBuAla][B3]DDAAFL[PyrS4][3Thi][Bta]Q-NH2 (staple 1-4, 4-11; also: earlier eluting HPLC peak (staple isomer composition)) [I-2158]",> 20
4,"Ac-[αAllylPro]N[Cha][B5(4)]DQ[Lys(iPr)]AFN[PyrS2″][Phe(2-CONH2)][Bta][hSer]-NH2 (staple 1-4, 4-11) [I-2168]",> 20
5,"Ac-[αAllylPro]N[Cha][B5(4)]DQ[Lys(iPr)]AFN[PyrS2″]F[Bta][hSer]-NH2 (staple 1-4, 4-11) [I-2167]",> 20
